Experimental data as given in article PMC8153620, “A Novel, Easy Assay Method for Human Cysteine Sulfinic Acid Decarboxylase” (Life, 2021).

T1: human cysteine sulfinic acid decarboxylase (CSAD) (Homo sapiens, UniProt Q9Y600)
T1 construct: His6 and TEV site), tag kept (cleavage not mentioned); plasmid pNIC28-Bsa4; E. coli Rosetta(DE3); homodimer in crystal (PDB 2jis, solved by SGC)
T1 sequence (Q9Y600 1-493): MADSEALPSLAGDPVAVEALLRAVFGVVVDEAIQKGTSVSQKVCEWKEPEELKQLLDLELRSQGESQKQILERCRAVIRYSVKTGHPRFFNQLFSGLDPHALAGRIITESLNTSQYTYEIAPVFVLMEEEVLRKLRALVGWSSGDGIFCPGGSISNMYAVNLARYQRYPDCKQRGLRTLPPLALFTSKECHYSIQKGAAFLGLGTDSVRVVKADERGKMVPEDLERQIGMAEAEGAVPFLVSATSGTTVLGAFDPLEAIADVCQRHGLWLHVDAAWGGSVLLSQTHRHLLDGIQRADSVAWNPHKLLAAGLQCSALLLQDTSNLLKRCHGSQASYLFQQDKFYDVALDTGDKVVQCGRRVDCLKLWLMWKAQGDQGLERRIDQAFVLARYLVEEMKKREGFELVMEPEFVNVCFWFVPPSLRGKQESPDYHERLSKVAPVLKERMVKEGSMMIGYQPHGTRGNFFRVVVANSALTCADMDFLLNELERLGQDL


What was measured:
[1] = target: T1, human cysteine sulfinic acid decarboxylase (CSAD); test: restoration of catalytic activity by equimolar PLP; absorption spectrum after dialysis; type: biochemical; settings: covalent (Schiff base to Lys305 in PDB 2jis, not solved here); spectrum in 20 mM NaHEPES pH 7.5, 300 mM NaCl, 0.2 mM DTT, 5% glycerol
[2] = substrate: N[C@@H](CS(=O)O)C(=O)O; test: purified protein; type: biochemical, Homo sapiens; settings: 20 mM potassium phosphate pH 7.2, 0.2 mM DTT, 0.1 mM EDTA, 0.06 mM PLP, about 20 °C (room temperature), 0.33 μM CSAD, CSA 0.06–1 mM

Row | Molecule | restoration of catalytic activity by equimolar PLP; absorption spectrum after di [1] | Km [2] [µM] | kcat [2] [s⁻¹]
1 | Cc1ncc(COP(=O)(O)O)c(C=O)c1O [PLP, pyridoxal-5′-phosphate] | addition of exogenous PLP—in equimolar concentration with respect to the protein—restored the holo-form | – | –
2 | human cysteine sulfinic acid decarboxylase (CSAD) (Homo sapiens) (protein, His6 and TEV site), tag kept (cleavage not mentioned); plasmid pNIC28-Bsa4; E. coli Rosetta(DE3); homodimer in crystal (PDB 2jis, solved by SGC)) MADSEALPSLAGDPVAVEALLRAVFGVVVDEAIQKGTSVSQKVCEWKEPEELKQLLDLELRSQGESQKQILERCRAVIRYSVKTGHPRFFNQLFSGLDPHALAGRIITESLNTSQYTYEIAPVFVLMEEEVLRKLRALVGWSSGDGIFCPGGSISNMYAVNLARYQRYPDCKQRGLRTLPPLALFTSKECHYSIQKGAAFLGLGTDSVRVVKADERGKMVPEDLERQIGMAEAEGAVPFLVSATSGTTVLGAFDPLEAIADVCQRHGLWLHVDAAWGGSVLLSQTHRHLLDGIQRADSVAWNPHKLLAAGLQCSALLLQDTSNLLKRCHGSQASYLFQQDKFYDVALDTGDKVVQCGRRVDCLKLWLMWKAQGDQGLERRIDQAFVLARYLVEEMKKREGFELVMEPEFVNVCFWFVPPSLRGKQESPDYHERLSKVAPVLKERMVKEGSMMIGYQPHGTRGNFFRVVVANSALTCADMDFLLNELERLGQDL | – | 200 ± 20 | 5.6 ± 0.2
